# Patent US20200157212A1 (Pfizer, published 2020)
# T1: Terbium (Tb) labeled-SNAP tagged ROBO2 expressed on HEK293 cells (Homo sapiens (Human), UniProt Q9HCK4 22-1378, terbium label on the SNAP tag)
# T1 construct: also called Tb-labeled ROBO2 cells; ROBO2 expressing cells; not shown: SNAP tag
# T1 sequence: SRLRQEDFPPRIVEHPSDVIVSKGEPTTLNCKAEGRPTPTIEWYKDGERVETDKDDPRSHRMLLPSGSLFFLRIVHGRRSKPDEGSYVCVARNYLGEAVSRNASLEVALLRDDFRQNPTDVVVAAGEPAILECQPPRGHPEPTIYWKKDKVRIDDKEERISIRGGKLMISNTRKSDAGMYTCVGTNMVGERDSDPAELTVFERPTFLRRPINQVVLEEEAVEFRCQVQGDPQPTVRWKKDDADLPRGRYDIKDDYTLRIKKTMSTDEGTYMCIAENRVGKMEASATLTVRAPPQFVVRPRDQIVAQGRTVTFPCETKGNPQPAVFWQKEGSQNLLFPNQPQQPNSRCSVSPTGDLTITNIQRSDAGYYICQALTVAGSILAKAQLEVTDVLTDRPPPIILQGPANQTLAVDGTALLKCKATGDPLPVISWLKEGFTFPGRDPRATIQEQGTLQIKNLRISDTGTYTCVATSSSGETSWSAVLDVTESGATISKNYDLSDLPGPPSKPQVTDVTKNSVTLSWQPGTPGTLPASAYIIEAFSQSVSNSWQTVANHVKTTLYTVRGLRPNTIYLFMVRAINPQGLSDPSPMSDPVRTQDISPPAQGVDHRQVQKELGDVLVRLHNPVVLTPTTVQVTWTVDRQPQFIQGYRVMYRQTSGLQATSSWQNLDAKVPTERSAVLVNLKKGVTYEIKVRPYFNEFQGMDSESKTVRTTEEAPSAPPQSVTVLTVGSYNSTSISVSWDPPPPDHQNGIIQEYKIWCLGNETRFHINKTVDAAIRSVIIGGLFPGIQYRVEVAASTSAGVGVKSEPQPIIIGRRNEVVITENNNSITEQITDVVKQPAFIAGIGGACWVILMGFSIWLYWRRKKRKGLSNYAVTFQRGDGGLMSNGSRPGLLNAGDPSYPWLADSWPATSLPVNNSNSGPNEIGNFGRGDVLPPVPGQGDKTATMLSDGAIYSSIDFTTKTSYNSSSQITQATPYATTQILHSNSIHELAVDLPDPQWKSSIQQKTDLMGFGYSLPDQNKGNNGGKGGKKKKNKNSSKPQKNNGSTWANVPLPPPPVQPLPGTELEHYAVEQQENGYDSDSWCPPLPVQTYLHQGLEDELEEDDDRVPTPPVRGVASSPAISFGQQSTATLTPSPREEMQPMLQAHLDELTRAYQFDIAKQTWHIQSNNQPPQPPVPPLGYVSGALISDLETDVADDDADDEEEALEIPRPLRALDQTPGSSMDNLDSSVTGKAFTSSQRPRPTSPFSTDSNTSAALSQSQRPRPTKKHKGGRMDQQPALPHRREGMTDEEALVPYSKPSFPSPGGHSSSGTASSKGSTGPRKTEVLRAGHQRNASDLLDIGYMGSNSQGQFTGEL
# T2: Rat ROBO2 on cells (rat, UniProt Q7TPD3 22-1469 (mouse entry))
# T2 chain: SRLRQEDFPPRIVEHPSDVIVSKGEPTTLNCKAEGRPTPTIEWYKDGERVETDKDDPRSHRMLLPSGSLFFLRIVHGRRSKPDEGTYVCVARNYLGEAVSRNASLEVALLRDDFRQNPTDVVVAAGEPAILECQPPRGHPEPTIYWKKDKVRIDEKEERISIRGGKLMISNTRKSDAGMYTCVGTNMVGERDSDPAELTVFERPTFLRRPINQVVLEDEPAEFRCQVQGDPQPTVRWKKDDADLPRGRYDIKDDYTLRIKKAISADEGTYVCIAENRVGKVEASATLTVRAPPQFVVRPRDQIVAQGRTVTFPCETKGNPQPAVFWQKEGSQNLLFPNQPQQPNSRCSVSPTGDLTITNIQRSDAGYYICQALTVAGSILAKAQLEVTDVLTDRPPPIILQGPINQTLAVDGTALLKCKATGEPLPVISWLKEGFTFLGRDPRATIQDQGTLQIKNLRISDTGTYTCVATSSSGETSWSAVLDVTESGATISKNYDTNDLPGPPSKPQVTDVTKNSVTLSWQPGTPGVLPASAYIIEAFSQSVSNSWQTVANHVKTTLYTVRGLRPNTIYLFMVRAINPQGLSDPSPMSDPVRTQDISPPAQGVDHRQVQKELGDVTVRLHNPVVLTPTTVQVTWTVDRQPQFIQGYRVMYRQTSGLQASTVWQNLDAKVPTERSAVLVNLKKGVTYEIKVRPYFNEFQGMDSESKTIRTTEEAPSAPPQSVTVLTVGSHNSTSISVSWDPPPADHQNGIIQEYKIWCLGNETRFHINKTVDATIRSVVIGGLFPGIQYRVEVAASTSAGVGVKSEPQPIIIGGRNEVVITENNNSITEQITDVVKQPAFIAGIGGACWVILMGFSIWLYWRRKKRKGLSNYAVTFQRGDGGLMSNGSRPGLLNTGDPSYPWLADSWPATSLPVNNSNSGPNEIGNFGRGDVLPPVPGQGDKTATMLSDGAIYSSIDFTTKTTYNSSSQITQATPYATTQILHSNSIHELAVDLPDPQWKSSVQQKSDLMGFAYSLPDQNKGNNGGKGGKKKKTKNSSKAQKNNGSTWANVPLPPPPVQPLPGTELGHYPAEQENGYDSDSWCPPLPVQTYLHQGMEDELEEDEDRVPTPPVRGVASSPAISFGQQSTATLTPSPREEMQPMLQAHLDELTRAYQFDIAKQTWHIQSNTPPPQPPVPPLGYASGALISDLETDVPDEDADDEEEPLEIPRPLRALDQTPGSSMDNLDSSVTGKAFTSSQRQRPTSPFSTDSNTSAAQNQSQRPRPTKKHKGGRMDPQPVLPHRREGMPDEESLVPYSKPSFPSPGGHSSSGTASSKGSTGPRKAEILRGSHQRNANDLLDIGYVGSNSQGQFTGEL
# B1: Abcs35 (antibody, human IgG1, kappa)
# heavy: EVQLVQSGAEVKKPGASVKVSCKASGYTFTGYYMHWVRQAPGQGLEWMGWINPKNGDTEFPQKFQGRVTMTRDTSITTAYMDLSRLRSDDTAVYYCARESGDDAFDIWGQGTMVTVSSASTKGPSVFPLAPSSKSTSGGTAALGCLVKDYFPEPVTVSWNSGALTSGVHTFPAVLQSSGLYSLSSVVTVPSSSLGTQTYICNVNHKPSNTKVDKKVEPKSCDKTHTCPPCPAPEAAGAPSVFLFPPKPKDTLMISRTPEVTCVVVDVSHEDPEVKFNWYVDGVEVHNAKTKPREEQYNSTYRVVSVLTVLHQDWLNGKEYKCKVSNKALPAPIEKTISKAKGQPREPQVYTLPPSREEMTKNQVSLTCLVKGFYPSDIAVEWESNGQPENNYKTTPPVLDSDGSFFLYSKLTVDKSRWQQGNVFSCSVMHEALHNHYTQKSLSLSPGK
# light: DIVMTQSPSSLSASVGDRVTITCRASQSISSYLNWYQQKPGKAPKLLIYAASSLQSGVPSRFSGSGSGTDFTLTISSLQPEDFATYYCQQSVGLFFGGGTKVEIKRTVAAPSVFIFPPSDEQLKSGTASVVCLLNNFYPREAKVQWKVDNALQSGNSQESVTEQDSKDSTYSLSSTLTLSKADYEKHKVYACEVTHQGLSSPVTKSFNRGEC
# notes: fully human IgG1; VH of Ab96 with VL of Ab123
# How the values were obtained:
# [1] = molecular target: T1, Terbium (Tb) labeled-SNAP tagged ROBO2 …; assay: HTRF competition on ROBO2 expressing cells; blocked ligand SLIT2-N; 11 points up to 10^2 nM, another dilution series than that of Table 2
# Rat ROBO2 on cells = molecular target: T2, Rat ROBO2 on cells; assay: cell-based or functional assay
binder,measurement,setting,value
B1,IC50 (read off the curve),[1],~0.05 nM
same,"IC50, restoration of neuronal cell migration (SVZa assay)",Rat ROBO2 on cells,0.027 nM
